B1: CDC25A (parent)
chain: KKFRTKSRTWAGEKSKREMYSRLK
B2: PTPLAD1 (parent)
chain: YINFRHLYKQRRRRYGQKKKKIH

Variants of: B1
Experiment: protein stability index of a GFP-peptide fusion (GPS, HEK-293T) (PSI 1-6); higher = more stable
Conditions: c terminus: a fixed tail appended
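Also: lentivirally expressed fusions sorted by FACS into six bins by GFP to DsRed ratio, PSI derived from sequencing read proportions per bin multiplied by bin number.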

Protein stability index, by site and new letter:
T5: A 2.15 | M 2.62 | K 3.12 | E 3.37 | F 3.25 | N 3.56 | I 2.5 | H 2.81 | C 2.87 | G 3.33
K2: G 4.12 | E 3.27 | P 2.6 | D 3.22 | Y 3.09 | M 1.76 | W 2.63 | C 2.38 | I 2.38 | H 1.93 | S 3.06
R4: S 2.42 | L 2.47 | Y 3.63 | F 2.71 | D 3.04 | C 3.02 | E 3.76 | P 3.09 | H 3.6 | T 3.37 | N 3.2 | G 2.5 | Q 3.86 | V 3.79 | W 2.71 | A 2.6 | K 3.18 | M 3.46 | I 2.3
K1: F 2.37 | P 3.25 | D 3.83 | Q 3.35 | V 2.65 | I 1.89 | Y 2.71 | L 1.95 | E 3.74 | N 2.7 | T 4.1 | W 2.37 | S 3.22 | R 3.04 | A 3.59
F3: A 3.28 | P 2.85 | Y 3 | R 3.51 | S 3.48 | G 3.49 | H 3.1 | L 3.49 | K 3.16 | W 3.48 | M 3.61 | T 3.59 | N 3.12 | I 3.06 | C 3.22

Variants of: B2
Experiment: as above
Conditions: c terminus: native

Protein stability index of substitutions, site by site:
Q10: T 2.29 | L 2.14 | G 1.92 | A 2.59 | E 1.96 | K 2 | H 2.27 | Y 2.06 | D 1.88 | F 2.15 | I 1.3 | W 1.8 | V 1.47
Q17: F 2.3 | V 1.89 | P 1.46 | N 4 | Y 1.7 | D 2.23 | R 2.59 | K 1.76 | E 2.55 | T 2.54 | A 2.66 | M 1.73 | L 2.07 | G 2.25 | H 1.72
Y8: W 2.9 | S 1.95 | N 2.72 | R 2.2 | K 2.5 | L 1.76 | E 2.18 | C 2.01 | A 2.52
L7: I 1.94 | E 2.79 | M 2.31 | N 2.72 | G 2.68 | A 2.01 | Y 2.29 | T 2.26 | S 2.04 | Q 2.24 | H 2.31 | R 2.77 | F 1.41
I2: D 3.45 | L 3.44 | H 1.29 | S 2.53 | Q 3.45 | R 2.05 | P 2.9 | F 3.06 | V 1.97 | A 2.7 | C 2.2 | Y 2.1 | N 3.6 | K 2.27 | G 2.19
R13: H 2.4 | I 1.9 | A 1.7 | T 1.75 | G 1.41 | D 1.37 | N 1.25 | V 2.13 | Y 2.28 | S 1.41 | F 2.49 | L 2.3 | Q 1.91
K18: E 2.17 | S 1.65 | F 2.46 | D 2.44 | I 2.86 | P 1.52 | R 1.97 | L 2.42 | G 1.91 | W 2.22
H23: D 2.09 | S 1.48 | T 3.73 | V 2.58 | F 1.11 | C 1.05 | P 2.07 | K 1.58
Y15: W 2.59 | L 2 | F 1.53 | I 2.11 | C 2.22 | K 2.33 | D 2.48 | R 2.85
R11: G 2.54 | A 1.72 | N 2.91 | Q 2.37 | L 1.61 | T 2.02 | F 1.73 | M 1.32 | K 1.65 | H 2.15 | S 2.3
R5: S 1.17 | Q 2.3 | G 1.38 | T 2.38 | M 1.59 | N 1.57 | C 1.45 | F 2.14 | L 1.79 | D 2.02 | K 2.51 | E 3.34
K19: H 2.49 | R 1.91 | N 1.62 | E 1.57 | Q 2.09 | G 2.15 | D 2.66 | A 2.04 | S 2.07 | F 2.25 | L 3.09 | Y 2.12 | P 1.95
R12: G 2.92 | D 2.24 | V 3.11 | Q 2.26 | Y 2.01 | L 1.25 | P 1.96 | I 2.44 | E 1.58 | H 1.93 | A 1.44 | N 2.05 | W 2.15
N3: S 2.68 | H 2.52 | T 2.31 | V 1.61 | A 1.9 | E 1.61 | C 1.57 | L 2.72 | F 2.51 | D 2.39 | I 1.58 | R 4.4
F4: H 3.71 | L 2.87 | G 1.9 | K 3.29 | W 1.1 | P 1.64 | M 1.74 | I 2.43 | E 3.23 | C 2.03 | T 2.01 | Y 1.99 | N 2.29
Y1: Q 2.24 | A 2.93 | G 2.01 | N 2.97 | K 1.94 | E 2.5 | I 1.17 | D 3.48 | S 3.15
K20: R 1.82 | H 2.35 | D 3.01 | G 2.77 | M 1.88 | I 2.92 | W 1.91 | Y 3.24 | Q 1.46 | F 1.71 | A 2.05 | P 2 | E 1.66
K21: S 2.33 | F 2.76 | D 1.33 | L 1.92 | T 2.7 | W 2.37 | Q 1.39 | M 2.3 | G 2.96 | R 2.49 | N 2.27 | P 1.99
I22: M 2.23 | N 1.9 | T 2.1 | H 2.13 | G 1.5 | R 1.81 | S 2.33 | Y 2.08 | W 2.22 | P 1.86 | D 2.56 | E 2.66 | F 1.72
K9: S 2.6 | H 2.17 | N 2.8 | T 2.12 | A 3.21 | G 1.95 | I 2.26 | Q 1.92 | P 2.27
H6: G 1.75 | V 2.06 | K 2.44 | Y 1.88 | E 1.73 | S 1.84 | A 1.81 | P 1.7 | W 1.75
G16: E 1.85 | T 2.88 | F 1.6 | Y 1.25 | V 2.44 | C 2.27 | I 2.21 | D 2.6 | S 2.71 | R 1.74 | H 1.35 | Q 1.56 | W 2.76
R14: S 1.85 | Y 1.78 | K 2.22 | A 2.57 | V 2.14 | G 2.47 | E 1.78 | P 2.05

Reference: the supplement of paper PMC10567573
